Patent US20100092481A1 (INSTITUTE FOR RESEARCH IN BIOMEDICINE, published 2010)

B1: 15D8 (antibody, V domains shown)
VH: EVQLVQSGAEVKKPGESLKISCQASGYSFTNYWIAWVRQMPGKGLEWMGIIYPGDSDIKYSPSFRGQVTISADKSISNAFLQWRSLRASDTAMYYCARHAIRGDGFDYWGQGTLVTVSS
VL: SYELTQPPSVSVSPGQTATITCSGDKLGEKYACWYQQKPGQSPVLVMYQDTKRPSGIPERFSGSNSGNTATLTISGTRAMDEADYYCQAWDTNTVIFGGGTKLTVL
notes: human IgG mAb; also called 15D8-biotin
B2: 8I21 (antibody, V domains shown)
VH: LVELVESGGGVVQPGRSLRLSCAASGFTFSSDGMHWVRQSPGRGLEWVAFISSDGSTPYYADSVKGRFTISRDNSKNTLYLQMNSLRAEDTAMYFCAKDWALFRWLRTFDHWGQGTLVTVSS
VL: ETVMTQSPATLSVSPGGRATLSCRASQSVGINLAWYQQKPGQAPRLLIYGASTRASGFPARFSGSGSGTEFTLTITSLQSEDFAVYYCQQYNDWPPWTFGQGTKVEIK
notes: human IgG mAb; also called 8I21-biotin
B3: 4N10 (antibody, V domains shown)
VH: QVQLVQSGAEVKKPGSSVRVSCKASGGTFSSYVIIWVRQAPGQGLEWMGGVIPIFDTVNYAQKFQGRVTITADESTSTAYMELSSLKSEDTAVYYCARGILAYCGGDCYNTPYGMDVWGQGTTVTVSS
VL: DIQMTQSPSILSASVGDRVTITCRASQSISSWLAWYQQKPGKAPKLLIYKASSLEIGVPSRISGSGSGTEFTLTISSLQPDDFATYYCQQYNSSWTFGQGTKVEIK
notes: human IgG mAb; also called 4N10-biotin
B4: 8L13 (antibody, V domains shown)
VH: QVQLLESGGGVVQPGRSLRLSCAASGFTFSNYGMHWVRQAPGKGLEWVAVIWNDGSKKYYAESVKGRFTISRDNSKNTVYLQMNSLRAEDTAVYYCARDEGVQMVFAMPDYGMDVWGQGTTVTVSS
VL: SYELTQPPSVSVSPGQTASITCSGDKLGDKFACWYQQRPGQSPILVIYQDSKRPSGIPERFSGSNSGNTATLTIRGTQAMDEADYYCQAWDSSTAHYVFGTGTKVTVL
notes: human IgG mAb
B5: 3G16 (antibody, V domains shown)
VH: QSALTQPASVSGSPGESITISCTGTISDVGAYNSVSWYQQHSGTAPELIIYDVTNRPAGVSSRFSGSKSGNTASLTISWLQSEDEAEYYCSSYTTSDTYVFGSGTQVTVL
V domain: RAQLVQSAAEMKNPGASVKVSCEASGYTFTGYYVHWMRQAPGQGLEWMGWINPMTGATKSPQKFQGRVTMTRDTSTTATHIELTRLRSDDSAVFFCARGGPTSTRITGKRHFDLWGRGTLITVAS
notes: human IgG mAb; also called 3G16-biotin
B6: 10P3 (antibody, V domains shown)
VH: EVQLVESGGGLVRPGGSLRLSCAASGFTFHNYRMNWVRQAPGKGLEWVANIKQDGSEKSYVDSVRGRFTTSRDNSKNSLYLQINSLRAEDTAVYYCARGEGYTYGVVYSYSAMDVWGQGTTVIVSS
VL: SYELTQPPSVSVSPGQTARITCSGNVLPNQYASWYQQKPGQAPVLVIYKDTERPSGIPGRFSGSSSGTTVTLTISGVQAEDEADYYCQSADSSGADYVFGTGTKVTVL
notes: human IgG mAb
B7: 4I22 (antibody, V domains shown)
VH: QVQLVESGGGVVQPGRSLRLSCVASGFTFSSYAMHWVRQAPGKGLEWVAVISYDGDNKFYADSVKGRFRISRDTSKNTLYLEMNSLRAADTAIYYCAREELVGLMPPYYNYGLDVWGQGTTVTVSS
VL: QSVLTQPPSVSAAPGQKVTISCSGSNSNIGNNYVSWYQQLPGRAPKLLIYDNDHRPSGIPDRFSGSKSGTSATLVITGLQTGDEADYYCETWDTSLSAAVVFGGGTKLTVL
notes: human IgG mAb; also called 4I22-biotin
B8: 10F7 (antibody, V domains shown)
VH: EVQLVESGGGLVQPGRSLRLSCTASGFTFGDYAMSWFRQAPGKGLEWVGFIRSKAYGGTTEYAASVKGRFTISRDDSKSIAYLQMNSLKTEDTAVYYCTRASSLLWLLNPQPNFDYWGQGTLVTVSS
VL: SYVLTQPPSVSVAPGQTARITCGGNNIGSNNVHWYQQKPGQAPVLVVYDDSDRPSGIPERFSGSNSGNTATLTISRVEAGDEADYYCQVWDSSSDHPVFGGGTKLTVL
notes: human IgG mAb; also called 10F7-biotin

Key:
[1] = biological target: T1, hCMV gH, gL, UL128, UL130 and UL131A co-expressed in HEK293T cells (human cytomegalovirus, UniProt P12824 24-743; P16832 31-278; P16837 1-171; P16772 1-214); assay: cell cross-competition, 20x excess; competitor 15D8-biotin
T1 construct: whole, on cells; also called gH + gL + UL128 + UL130 + UL131A; gH/gL/UL128-130 complex

[2] = biological target: T1, hCMV gH, gL, UL128, UL130 and UL131A …; assay: cell cross-competition, 20x excess; competitor 2C12-biotin
[3] = biological target: T1, hCMV gH, gL, UL128, UL130 and UL131A …; assay: cell cross-competition, 20x excess; competitor 8I21-biotin
[4] = biological target: T1, hCMV gH, gL, UL128, UL130 and UL131A …; assay: cell cross-competition, 20x excess; competitor 2F4-biotin
[5] = biological target: T1, hCMV gH, gL, UL128, UL130 and UL131A …; assay: cell cross-competition, 20x excess; competitor 5A2-biotin
[6] = biological target: T1, hCMV gH, gL, UL128, UL130 and UL131A …; assay: cell cross-competition, 20x excess; competitor 4N10-biotin
[7] = biological target: T1, hCMV gH, gL, UL128, UL130 and UL131A …; assay: cell cross-competition, 20x excess; competitor 1F11-biotin
[8] = biological target: T1, hCMV gH, gL, UL128, UL130 and UL131A …; assay: cell cross-competition, 20x excess; competitor 10F7-biotin
[9] = biological target: T1, hCMV gH, gL, UL128, UL130 and UL131A …; assay: cell cross-competition, 20x excess; competitor 4I22-biotin
[10] = biological target: T1, hCMV gH, gL, UL128, UL130 and UL131A …; assay: cell cross-competition, 20x excess; competitor 6G4-biotin
[11] = biological target: T2, hCMV UL130 and UL131A co-expressed in HEK293T cells (human cytomegalovirus, UniProt P16772 1-214); assay: cell-based or functional assay
[12] = biological target: T2, hCMV UL130 and UL131A co-expressed in …; assay: cell-based or functional assay; remark: listed apart in the source
[13] = biological target: T1, hCMV gH, gL, UL128, UL130 and UL131A …; assay: cell cross-competition, 20x excess; competitor 8J16-biotin

T2 sequence (P16772 whole entry): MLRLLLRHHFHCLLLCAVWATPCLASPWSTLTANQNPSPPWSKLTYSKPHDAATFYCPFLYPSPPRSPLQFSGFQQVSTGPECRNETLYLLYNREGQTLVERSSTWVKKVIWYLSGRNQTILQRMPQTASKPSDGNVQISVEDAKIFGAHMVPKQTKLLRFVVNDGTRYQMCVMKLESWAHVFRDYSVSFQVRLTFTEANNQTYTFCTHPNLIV

Binder | Inhibition of binding (%) [1] [%] | Inhibition of binding (%) [2] [%] | Inhibition of binding (%) [3] [%] | Inhibition of binding (%) [4] [%] | Inhibition of binding (%) [5] [%] | Inhibition of binding (%) [6] [%] | Inhibition of binding (%) [7] [%] | Inhibition of binding (%) [8] [%] | Inhibition of binding (%) [9] [%] | Inhibition of binding (%) [10] [%] | 50% Neutralization ARPE (hCMV VR1814) [11] [µg/mL] | 50% Neutralization MRC-9 (hCMV VR1814) [11] [µg/mL] | 90% Neutralization ARPE (hCMV VR1814) [12] [µg/mL] | 90% Neutralization MRC-9 (hCMV VR1814) [12] [µg/mL] | Inhibition of binding (%) [13] [%]
B1 | 100 | 0 | 0 | 0 | 0 | 0 | 0 | 0 | 0 | 0 | – | – | – | – | –
B2 | 0 | 0 | 100 | 0 | 95 | 90 | 0 | – | 0 | 0 | – | – | – | – | –
B3 | 0 | 0 | 90 | 0 | 100 | 100 | 0 | 0 | 0 | 0 | < 0.001 | ≤ 2 | 0.02 | > 10 | –
B4 | – | – | – | – | – | – | 100 | 100 | – | – | < 0.01 | > 2 | 0.001 | > 10 | –
B5 | – | 0 | 0 | – | – | – | – | – | – | 0 | – | – | – | – | –
B6 | 0 | 0 | 0 | 0 | – | – | 0 | – | 0 | 0 | < 0.001 | > 2 | 0.0025 | > 10 | –
B7 | – | 0 | 0 | 100 | 0 | 0 | 100 | 100 | 100 | – | < 0.01 | > 2 | 0.0015 | > 10 | 0
B8 | 0 | 0 | 0 | 100 | 0 | 0 | 100 | 100 | 100 | 0 | < 0.01 | ≤ 2 | 0.002 | > 10 | –
